Experimental findings from US20230174604A1 (Innovent, published 2023) are described below.

The target of this experiment is T1, IL-2Rα-Biotin (biotin-labeled human IL-2Rα, UniProt P01589 aa22-217, with C-terminal avi tag and His6 tag) (human, UniProt P01589 22-217, biotin on the avi tag (enzymatic labeling with BirA)).
T1 construct: Expressed in HEK293-F, monomer peak collected; loaded on SA sensor or used to stain yeast; also called CD25; IL-2Rα receptor
T1 sequence: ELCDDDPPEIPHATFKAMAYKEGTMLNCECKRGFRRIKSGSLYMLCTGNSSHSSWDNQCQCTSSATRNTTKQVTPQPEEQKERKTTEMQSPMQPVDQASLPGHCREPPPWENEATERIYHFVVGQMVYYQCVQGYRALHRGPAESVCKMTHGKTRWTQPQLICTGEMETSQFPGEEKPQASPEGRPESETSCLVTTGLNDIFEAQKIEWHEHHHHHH
The experiment is described as follows: flow cytometry, yeast-displayed IL-2 stained with IL-2Rα-Biotin. The method, then: Yeast cells comprising a single mutant sequence after sequencing were induced by shaking at 20° C. for 24 h to display IL-2^mutant, and stained together with their receptors IL-2Rα-Biotin and IL-2Rβ IH-Biotin, respectively. The specific steps were as follows: [0191] […] 1. 1×10⁶ cells from each sample were centrifuged to discard the supernatant, and washed with FACS buffer once for later use; [0193] 2. the cells were added to 100 μL of FACS buffer containing 50 nM IL-2Rα-Biotin and Anti Flag antibody, and incubated at room temperature for 30 min; [0194] 3. the mixture was centrifuged at 3000 rpm at 4° C. for 3 min, and washed twice with pre-cooled FACS buffer; [0195] 4. […] 5. after being washed twice with pre-cooled FACS buffer, the cells were resuspended in 100 μL of buffer, and the binding level of IL-2^mutant to IL-2Rα was assayed by a flow cytometer (BD, ACCURI C6). [0197] II. […] 1. 1×10⁶ cells from each sample were centrifuged to discard the supernatant, and washed with FACS buffer once for later use; [0199] 2. the cells were added to 100 μL of FACS buffer containing IL-2Rβ IH-Biotin (30 nM-100 nM) and Anti Flag antibody, and incubated at room temperature for 30 min; [0200] 3. following steps 3-5 described above, the binding level of IL-2′ to IL-2Rβ was assayed.

B1: IL-2^3X displayed on the surface of yeasts (ligand)
chain: APTSSSTKKTQLQLEHLLLDLQMILNGINNYKNPKLTDMLTFEFYMPKKATELKHLQCLERELKPLEEVLNLAQSKNFHLRPRDLISNINVIVLELKGSETTFMCEYADETATIVEFLNRWITFSQSIISTLT
notes: control in the flow cytometry staining
B1: the binding result is on record as “no binding (tested: 50 nM IL-2Rα-Biotin)”.
